Data taken from patent publication US20210070829A1 (ZHEJIANG DOER BIOLOGICS, published 2021).
Read-outs that look alike come from different tables or passages of the source.

Assays:
Assay in all cases: cell-based or functional assay
[1] = target: Glucagon receptor
[2] = target: T1, human GLP-1 receptor (human, UniProt P43220 24-463)
[3] = target: FGFR/β-Klotho receptor complex
[4] = target: Glucagon receptor; remark: listed apart in the source
[5] = target: T1, human GLP-1 receptor; remark: listed apart in the source

Row | Binder | GCGR agonist activity EC50 (luciferase reporter) [1] [nM] | GLP-1R agonist activity EC50 (luciferase reporter) [2] [nM] | FGF21 activity EC50 (luciferase reporter) [3] [nM] | GCGR agonist activity EC50 (luciferase reporter) [4] [nM] | GLP-1R agonist activity EC50 (luciferase reporter) [5] [nM]
1 | C495 L9F10L9M1 (Fc fusion) HSQGTFTSDYSKYLDEQAAQDFVQWLMNGGPSSGAPPPSGGGGSGGGGSGGGGSESKYGPPCPPCPAPEAAGGPSVFLFPPKPKDTLMISRTPEVTCVVVDVSQEDPEVQFNWYVDGVEVHNAKTKPREEQFASTYRVVSVLTVLHQDWLNGKEYKCKVSNKGLPSSIEKTISKAKGQPREPQVYTLPPSQEEMTKNQVSLTCLVKGFYPSDIAVEWESNGQPENNYKTTPPVLDSDGSFFLYSRLTVDKSRWQEGNVFSCSVMHEALHNHYTQKSLSLSLGGGGGSGGGGSGGGGSHPIPDSSPLLQFGGQVRQRYLYTDDAQQTEAHLEIREDGTVGGAADQSPESLLQLKALKPGVIQILGVKTSRFLCQRPDGALYGSLHFDPEACSFRERLLEDGYNVYQSEAHGLPLHLPGNKSPHRDPAPRGPARFLPLPGLPPALPEPPGILAPQPPDVGSSDPLSMVGGSQGRSPSYES | 1.43 | 1.21 | 0.84 | – | –
2 | C627 L12F10L9M6 (Fc fusion) HSQGTFTSDYSKQMDSQRAQDFVQWLMNGGPSSGAPPPSGGGGAGGGGAGGGGAAESKYGPPCPPCPAPEAAGGPSVFLFPPKPKDTLMISRTPEVTCVVVDVSQEDPEVQFNWYVDGVEVHNAKTKPREEQFASTYRVVSVLTVLHQDWLNGKEYKCKVSNKGLPSSIEKTISKAKGQPREPQVYTLPPSQEEMTKNQVSLTCLVKGFYPSDIAVEWESNGQPENNYKTTPPVLDSDGSFFLYSRLTVDKSRWQEGNVFSCSVMHEALHNHYTQKSLSLSLGGGGGSGGGGSGGGGSHPIPDSSPLLQFGGQVRQRYLYTDDAQQTEAHLEIREDGTVGGAADQSPESLLQLKALKPGVIQILGVKTSRFLCQRPDGALYGSLHFDPEACSFRERLLEDGYNVYQSEAHGLPLHCPGNKSPHRDPAPRGPCRFLPLPGLPPALPEPPGILAPQPPDVGSSDPLSMVEPSQGRSPSYAS | 1.69 | 1.48 | 1.11 | – | –
3 | C225 L10F10L14M2 (Fc fusion) HSQGTFTSDYSKYLDERAAQDFVQWLMNTGPSSGAPPPSGGGGAGGGGAGGGGAESKYGPPCPPCPAPEAAGGPSVFLFPPKPKDTLMISRTPEVTCVVVDVSQEDPEVQFNWYVDGVEVHNAKTKPREEQFASTYRVVSVLTVLHQDWLNGKEYKCKVSNKGLPSSIEKTISKAKGQPREPQVYTLPPSQEEMTKNQVSLTCLVKGFYPSDIAVEWESNGQPENNYKTTPPVLDSDGSFFLYSRLTVDKSRWQEGNVFSCSVMHEALHNHYTQKSLSLSLGGGGGAGGGGAGGGGASHPIPDSSPLLQFGGQVRQRYLYTDDAQQTEAHLEIREDGTVGGAADQSPESLLQLKALKPGVIQILGVKTSRFLCQRPDGALYGSLHFDPEACSFRERLLEDGYNVYQSEAHGLPLHCPGNKSPHRDPAPRGPCRFLPLPGLPPALPEPPGILAPQPPDVGSSDPLSMVGGSQGRSPSYES | 1.17 | 1.42 | 0.85 | – | –
4 | C225L10F10 (Fc fusion) HSQGTFTSDYSKYLDERAAQDFVQWLMNTGPSSGAPPPSGGGGAGGGGAGGGGAESKYGPPCPPCPAPEAAGGPSVFLFPPKPKDTLMISRTPEVTCVVVDVSQEDPEVQFNWYVDGVEVHNAKTKPREEQFASTYRVVSVLTVLHQDWLNGKEYKCKVSNKGLPSSIEKTISKAKGQPREPQVYTLPPSQEEMTKNQVSLTCLVKGFYPSDIAVEWESNGQPENNYKTTPPVLDSDGSFFLYSRLTVDKSRWQEGNVFSCSVMHEALHNHYTQKSLSLSLG | – | – | – | 1.39 | 1.47
5 | C711 L13F5L10M4 (Fc fusion) HSQGTFTSDYSKYLDSQAAQDFVQWLMNTKRNRNNIAGGGGSGGGGSGGGGSAERKCCVECPPCPAPPVAGPSVFLFPPKPKDTLMISRTPEVTCVVVDVSHEDPEVQFNWYVDGVEVHNAKTKPREEQFNSTFRVVSVLTVVHQDWLNGKEYKCKVSNKGLPSSIEKTISKTKGQPREPQVYTLPPSREEMTKNQVSLTCLVKGFYPSDIAVEWESNGQPENNYKTTPPMLDSDGSFFLYSKLTVDKSRWQQGNVFSCSVMHEALHNHYTQKSLSLSPGGGGGAGGGGAGGGGAHPIPDSSPLLQFGGQVRQRYLYTDDAQQTEAHLEIREDGTVGGAADQSPESLLQLKALKPGVIQILGVKTSRFLCQRPDGALYGSLHFDPEACSFRERLLEDGYNVYQSEAHGLPLHCPGNKSPHRDPAPRGPCRFLPLPGLPPALPEPPGILAPQPPDVGSSDPLAMVGGSQGRSPSYES | 9.55 | 10.8 | 0.75 | – | –
6 | C227 L12F5L14M4 (Fc fusion) HSQGTFTSDYSKYLDSQAAQDFVQWLMNTGPSSGAPPSGGGGAGGGGAGGGGAAERKCCVECPPCPAPPVAGPSVFLFPPKPKDTLMISRTPEVTCVVVDVSHEDPEVQFNWYVDGVEVHNAKTKPREEQFNSTFRVVSVLTVVHQDWLNGKEYKCKVSNKGLPSSIEKTISKTKGQPREPQVYTLPPSREEMTKNQVSLTCLVKGFYPSDIAVEWESNGQPENNYKTTPPMLDSDGSFFLYSKLTVDKSRWQQGNVFSCSVMHEALHNHYTQKSLSLSPGGGGGAGGGGAGGGGASHPIPDSSPLLQFGGQVRQRYLYTDDAQQTEAHLEIREDGTVGGAADQSPESLLQLKALKPGVIQILGVKTSRFLCQRPDGALYGSLHFDPEACSFRERLLEDGYNVYQSEAHGLPLHCPGNKSPHRDPAPRGPCRFLPLPGLPPALPEPPGILAPQPPDVGSSDPLAMVGGSQGRSPSYES | 1.38 | 1.55 | 0.71 | – | –
7 | C240 L13F10L9M2 (Fc fusion) HSQGTFTSDYSKYLDERAAQDFVQWLMNGGPSSGAPPPSGGGGSGGGGSGGGGSAESKYGPPCPPCPAPEAAGGPSVFLFPPKPKDTLMISRTPEVTCVVVDVSQEDPEVQFNWYVDGVEVHNAKTKPREEQFASTYRVVSVLTVLHQDWLNGKEYKCKVSNKGLPSSIEKTISKAKGQPREPQVYTLPPSQEEMTKNQVSLTCLVKGFYPSDIAVEWESNGQPENNYKTTPPVLDSDGSFFLYSRLTVDKSRWQEGNVFSCSVMHEALHNHYTQKSLSLSLGGGGGSGGGGSGGGGSHPIPDSSPLLQFGGQVRQRYLYTDDAQQTEAHLEIREDGTVGGAADQSPESLLQLKALKPGVIQILGVKTSRFLCQRPDGALYGSLHFDPEACSFRERLLEDGYNVYQSEAHGLPLHCPGNKSPHRDPAPRGPCRFLPLPGLPPALPEPPGILAPQPPDVGSSDPLSMVGGSQGRSPSYES | 1.25 | 1.21 | 0.89 | – | –
8 | C462 L13F10L9M4 (Fc fusion) HSQGTFTSDYSKYLDEEAAQDFVQWLMNGGPSSGAPPPSGGGGSGGGGSGGGGSAESKYGPPCPPCPAPEAAGGPSVFLFPPKPKDTLMISRTPEVTCVVVDVSQEDPEVQFNWYVDGVEVHNAKTKPREEQFASTYRVVSVLTVLHQDWLNGKEYKCKVSNKGLPSSIEKTISKAKGQPREPQVYTLPPSQEEMTKNQVSLTCLVKGFYPSDIAVEWESNGQPENNYKTTPPVLDSDGSFFLYSRLTVDKSRWQEGNVFSCSVMHEALHNHYTQKSLSLSLGGGGGSGGGGSGGGGSHPIPDSSPLLQFGGQVRQRYLYTDDAQQTEAHLEIREDGTVGGAADQSPESLLQLKALKPGVIQILGVKTSRFLCQRPDGALYGSLHFDPEACSFRERLLEDGYNVYQSEAHGLPLHCPGNKSPHRDPAPRGPCRFLPLPGLPPALPEPPGILAPQPPDVGSSDPLAMVGGSQGRSPSYES | 1.23 | 1.11 | 1.33 | – | –
9 | C382 L13F10L9M1 (Fc fusion) HSQGTFTSDYSKYLDSQAAQDFVQWLMNGGPSSGAPPPSGGGGSGGGGSGGGGSAESKYGPPCPPCPAPEAAGGPSVFLFPPKPKDTLMISRTPEVTCVVVDVSQEDPEVQFNWYVDGVEVHNAKTKPREEQFASTYRVVSVLTVLHQDWLNGKEYKCKVSNKGLPSSIEKTISKAKGQPREPQVYTLPPSQEEMTKNQVSLTCLVKGFYPSDIAVEWESNGQPENNYKTTPPVLDSDGSFFLYSRLTVDKSRWQEGNVFSCSVMHEALHNHYTQKSLSLSLGGGGGSGGGGSGGGGSHPIPDSSPLLQFGGQVRQRYLYTDDAQQTEAHLEIREDGTVGGAADQSPESLLQLKALKPGVIQILGVKTSRFLCQRPDGALYGSLHFDPEACSFRERLLEDGYNVYQSEAHGLPLHLPGNKSPHRDPAPRGPARFLPLPGLPPALPEPPGILAPQPPDVGSSDPLSMVGGSQGRSPSYES | 1.27 | 1.13 | 0.76 | – | –
10 | C462 L10F5L10M3 (Fc fusion) HSQGTFTSDYSKYLDEEAAQDFVQWLMNGGPSSGAPPPSGGGGAGGGGAGGGGAERKCCVECPPCPAPPVAGPSVFLFPPKPKDTLMISRTPEVTCVVVDVSHEDPEVQFNWYVDGVEVHNAKTKPREEQFNSTFRVVSVLTVVHQDWLNGKEYKCKVSNKGLPSSIEKTISKTKGQPREPQVYTLPPSREEMTKNQVSLTCLVKGFYPSDIAVEWESNGQPENNYKTTPPMLDSDGSFFLYSKLTVDKSRWQQGNVFSCSVMHEALHNHYTQKSLSLSPGGGGGAGGGGAGGGGADSSPLLQFGGQVRQRYLYTDDAQQTEAHLEIREDGTVGGAADQSPESLLQLKALKPGVIQILGVKTSRFLCQRPDGALYGSLHFDPEACSFRELLLEDGYNVYQSEAHGLPLHCPGNKSPHRDPAPRGPCRFLPLPGLPPALPEPPGILAPQPPDVGSSDPLAMVGPSQGRSPSYAS | 1.22 | 1.23 | 1.37 | – | –
11 | C788 L1F5L5M5 (Fc fusion) HSQGTFTSDYSKQMDSQRAQDFVQWLMNTKRNRNNIAGGGGSERKCCVECPPCPAPPVAGPSVFLFPPKPKDTLMISRTPEVTCVVVDVSHEDPEVQFNWYVDGVEVHNAKTKPREEQFNSTFRVVSVLTVVHQDWLNGKEYKCKVSNKGLPSSIEKTISKTKGQPREPQVYTLPPSREEMTKNQVSLTCLVKGFYPSDIAVEWESNGQPENNYKTTPPMLDSDGSFFLYSKLTVDKSRWQQGNVFSCSVMHEALHNHYTQKSLSLSPGGGGGSGGGGSHPIPDSSPLLQFGGQVRQRYLYTDDAQQTEAHLEIREDGTVGGAEDQSPESLLQLKALKPGVIQILGVKTSRFLCQRPDGALYGSLHFDPEACSFRERLLEDGYNVYQSEAHGLPLHCPGNKSPHRDPAPRGPCRFLPLPGLPPALPEPPGILAPQPPDVGSSDPLSMVGGSQGRSPSYES | 7.64 | 10.6 | 0.88 | – | –
